Values of other authors as cited in publication PMC11381289.
Where two headings read alike, the source gives them in different places.

How the values were obtained:
TL (Mus musculus) [1] = biological target: TL (Mus musculus) (UniProt P14432)
TL (Mus musculus) [2] = biological target: TL (Mus musculus) (UniProt P14432); remark: listed apart in the source

Sequence of UniProt P14432 (P14432 27-314): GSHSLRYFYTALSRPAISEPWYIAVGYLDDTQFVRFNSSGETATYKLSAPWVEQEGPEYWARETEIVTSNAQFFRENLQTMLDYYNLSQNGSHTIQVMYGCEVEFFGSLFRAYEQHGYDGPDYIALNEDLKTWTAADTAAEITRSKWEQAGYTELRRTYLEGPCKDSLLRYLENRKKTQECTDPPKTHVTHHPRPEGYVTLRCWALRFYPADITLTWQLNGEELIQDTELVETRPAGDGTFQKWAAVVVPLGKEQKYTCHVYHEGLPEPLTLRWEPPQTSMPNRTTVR

Row | Substance | Kd (TL (Mus musculus) [1]) [µM] | Kd (TL (Mus musculus) [2]) [µM]
1 | CD8αα (from UniProt P01731) | 12 | 
2 | CD8αβ (from UniProt P01731) |  | > 90
